Test results published in doi:10.1101/2022.05.21.492554 (2022).

Experiments:
[1] = biological target: T1, BA.4/5 RBD with BAP-His tag, biotinylated (SARS-CoV-2 Omicron BA.4/5, L452R | F486V | T478K | E484A | N501Y, biotin (on the BAP tag, by co-expressed ER-localized biotin ligase BirA)); assay: SPR; settings: both partners purified
[2] = biological target: T1, BA.4/5 RBD with BAP-His tag, …; assay: cell-based or functional assay

B1: Omi-32 Fab (Fab, V domains shown)
VH: EVQLVESGGGVVQPGRSLRLSCAASGFTFSNYGMHWVRQAPGKGLEWVAVYWYDGGNKFYADSVKGRFTISRDNSKNTLYLQMNSLRVEDTAVYYCARDTAPPDYWGQGTLVTVSS
VL: AIRMTQSPGTLSLSPGERATLSCRASQSISSSFLAWYQQKPGQAPRLLIYGASSRATGIPDRFSGSGSGTDFTLTISRLEPEDFAVYYCQQYGTSPRLTFGGGTKVDIK
- fold increase in on-rate against BA.2 RBD [1]: 5 fold
- pseudoviral neutralization of BA.4/5, fold enhancement compared to BA.2 [2]: 77 fold
